The results in this text go back to the DeepSol protein solubility set.

The nature of this data set: soluble on expression in E. coli; label from the status in PepcDB or PDB records.
Take “SQACVMPSLLQNMVGFSEVARATQTDPRPQRPAPPQPQVATMPWSQPGSWARRGFVPAWSQPPALSQQKLARQCCLGPWAGLIPHQQPLPRHPPQASSFPTTAGLWPPAFAQCGTLGHRAIYLVLWPPFLGPWLSSLQEKPHFIPQLPPACTPHPVPWWGLSIPGSKGRRSAPFLPLSLGRLGAQLWKHHPATHLSCGSRFFGGS”: the “soluble on expression in E. coli” value was “soluble”.
Regarding “MGSDKIHHHHHHMKLIAVGDNVVDYYQDQETFYPGGNALNVAVLAKRLGHESSYIGIVGNDEAAAHLLNVLKLEQVNADYIRQAHGENGMAIVTLDEQGDRIFVRSNKGGIQSRLRLAFQEKDVSFISGHDLLHTSVYSRLENDLPQLCGLVPVSFDFSTNREDDYLRRVCPYVTYAFFSGSDLSESECGELAKTAHGYGAKMVCMTRGGQGAILSAGDRVYHQPIVEADIIDTLGAGDSFIAGFLTAFCVKQDITYALRQAAETAAKTCGVYGAFGYGYPYRLEDGGSSEKTRIL”, the “soluble on expression in E. coli” value is given as “not soluble”.
The same measure for “IHTMWKGTISFGLVNIPIKLHAATENKDVRLRQLHKECKTPINYLKVCPNCDAEVEPNDIVKAYEYAKNKFVELDEEELASLKKEQEDKAVEIIDFVKLQEIDPIYFDKSYYMSPGDGGGKAYTLLREALAESEKIGVAKIIIRAKEHLAVIRVYKNTLLMETIHFPDEVRAVDQVPNVPE”: “not soluble”; for “MRMIVGHGIDIEELASIESAVTRHEGFAKRVLTALEMERFTSLKGRRQIEYLAGRWSAKEAFSKAMGTGISKLGFQDLEVLNNERGAPYFSQAPFSGKIWLSISHTDQFVTASVILEENHES”: “soluble”.
Next, “GSHMVPISFVFNRFPRMVRDLAKKMNKEVNFIMRGEDTELDRTFVEEIGEPLLHLLRNAIDHGIEPKEERIAKGKPPIGTLILSARHEGNNVVIEVEDDGRGIDKEKIIRKAIEKGLIDESKAATLSDQEILNFLFVPGFSTKEKVSEVSGRGVGMDVVKNVVESLNGSISIESEKDKGTKVTIRLPLTLAIIQALLVKVNNLVYAIPIANIDTILSISKEDIQRVQDRDVIVIRGEVIPVYRLWEVLQIEHKEELEEMEAVIVRVGNRKYGIVVDDLLGQDDIVIKSLGKVFSEVKEFSGAAILGDGSIALIINVSGIV”: “soluble”.
For the sequence “MKYLHTEKDYLDLLLAVKRKFDYQRSIVPYIVYFLLKTGMRFGELVALTWNEVDFDRGLLKTYRRYNTLSHKFVPPKNKTSIRMVPIDEECIKILRLLQTEQERANMELGIKNRYRMIFQHFGYIHSVPDIASVNKALSVLLNELDIYPIITTKGARHTYGSYLWHKGFDLGVIAKILGHRDISMLVEVYGHTLEEKIFEEFNQIRDIWKDCSLEHHHHHH”, the “soluble on expression in E. coli” value is “not soluble”.
Next, “MSSILTNNGAMVALQTLKSVNMNLGQTQNAISTGKNVATAKDNSAVWAISKVMESDVKGFKAIKDSLSLGESTVAVARNAAETVTDLLTQMKGKIVAAQEDNVDRNKINADVTALKDQISAVVGAAQFNGLNLVDGTAASASVLSSLDRDNAGNVTASSITVTGQNLSTGGYTAKAVFDATNTDGVSADGQDTFGFSLDANGGTDDNGQIEFEPQGTAAYAAGDSFTIRLGDTEVNYTVTAEDIASTSQADVIAVGMKAAIEASGANVTVDYNAANSGRLVITNDGTDSLQVSGQFSNANSGGLGALAAIDVSNSAGAAAALGSIETLIDTSIDAAAAFGSVQGRIETQKTFISNLTDSLKSGIGSMVDADMEEVSARLQALQVQQQLAVQSLSIANQAPQSILSLFR”: “not soluble”; “MGSDKIHHHHHHMIDFLDVQKETPRIRIAIDRVGVKNIKFPLKIHDDFAFLTLNLFVDVPADRKGADMSRAVESIQKVINAGSYGERIGDIGIAICDEALSRFNYSEKAQCEVNIQYYRRSGERYLEYRMYVETAKDRKQIMKNEIGISYVTMTACPCAMETTRALISMDNPDISDAISAIPTITHNQRNVTKLTVDNRSKMITVWDLADVMERVQGKPLDSLLKRVEEGRLVYSAHRNPKFVEDVVREIAYEAARVLGVPDEATIKVSSESDESIHPHNAYAEIDTTAGELRKLHLH”: “not soluble”; “MSLRRILHMTEKKKKIGFNIVKNDSTDGHGGFGVGALSLENISPVFVDVLEKTAFVDIGAMHARSTVEKGIKFLTNKDEVPNGKPFWLVWVTIERTATGAYYAGVTACEMTVDREIRRGYKSLPEHVNKMDKSMKRHIMVDHMDESSKKVLGTFLKEHNEAIWNESGEELRRALLSEEGHHHHHH”: “soluble”.
Turning to “HHHHHHSSGLVPRGSHMMNPFHDLEPGPNVPEVVYALIEIPKGSRNKYELDKETGLLKLDRVLYTPFHYPVDYGIIPRTWYEDGDPFDIMVIMREPTYPLTIIEARPIGLFKMIDSGDKDYKVLAVPVEDPYFKDWKDISDVPKAFLDEIAHFFKRYKELEGKEIIVEGWEGAEAAKREILRAIEMYKEKFGKKE”, the “soluble on expression in E. coli” value was “soluble”.
The same measure for “MEIRVKCRCGEEECSEWAIVELQGVVETQASFQGSIQNLEIGRLCHSDSSQGTYTFTVGYHELVGSKVTLKKPLLVLKKLQFDEVSGKATELEVVGIIRTKILFKTRPKPLISGNNNLSLFCS”: “not soluble”; for “PEDPSDLLQHVKFQSSNFENILTWDSGPEGTPDTVYSIEYKTYGERDWVAKKGCQRITRKSCNLTVETGNLTELYYARVTAVSAGGRSATKMTDRFSSLQHTTLKPPDVTCISKVRSIQMIVHPTPTPIRAGDGHRLTLEDIFHDLFYHLELQVNRTYQMHLGGKQREYEFFGLTPDTEFLGTIMILVPTWAKESAPYMCRVKTLPDRTWT”: “soluble”; for “MKLSKRQEQIIAVVKEHQPVSGERISDILAVSRATLRSDLSFLTLSGILKASPKVGYTYESDNMEAFFFFDVFQTKVQEIMSPPLMVAQDTSIRDAITNLFMYDVGSLYVMDEAKELLGVLSRKDLLRASLNTNIDGTPVAVCMTRVPHVKTCTPEFTILEAADTLQKYEVDSLPVVEKENPKKVIGKITKTKILTYITQQAKEAAQNR”: “not soluble”.
Next, “MGHHHHHHSHMTLEEVRGQDTVPESTARMQGAGKALHELLLSAQRQGCLTAGVYESAKVLNVDPDNVTFCVLAAGEEDEGDIALQIHFTLIQAFCCENDIDIVRVGDVQRLAAIVGAGEEAGAPGDLHCILISNPNEDAWKDPALEKLSLFCEESRSVNDWVPSITLPE”: “soluble”; “MAKSLLRSGNLDDYQAVGGGGQAVFESALQIRETLRLRKQQAMVDCLAIPQLNDNGDRVDWYSPIEGQAIAWKAADEETRSRALRYLASTFESAAALSRKSLQSGKTALQLFGSLLEKATQFPGENHVFLVNGKPVITFWGFVNLNENTRDDVLDCLRVTEAIPDIPLVEPEPEEKPLVEAAFSQADEPLLTSVIEPPKMPEEPAAPPVIVSEPKPAAPIPVAEAKRARRLPLWSLPVAAVVIAAVATPFFWPSSSVDGASPVRAAPVATAKTDVTPLPELTAHLPLHRAEVTPAPKAAPLPEAPVIIAAIPKDALVMDNTQMKLGTTRFLNGSWRISVDVKDPITGKPPSLRYQIQNNKGIARVVHGDNVVCRAEIFSGLHQTGELMIKSRGNARCTDGSRYPMPEITCKAGVNDVATCTARYGDHAAIPLTFKKIGA”: “not soluble”; “MSLANRIRLHIWGDYACFTRPEMKVERVSYDVITPSAARGILSAIHWKPAINWVIDKIYVLKPIRFESVRRNELGAKISESKVSGAMKRKSVADLYTVIEDDRQQRAATVLKDVAYVIEAHAVMTSKAGVDENTTKHIEMFKRRALKGQCFQQPCMGVREFPAHFALIDDNDPLPLSQLSESEFNRDLGWMLHDIDFEHGNTPHFFRAELKNGVIDVPPFYAEEVKREGHHHHHH”: “soluble”.
Next, “MNGWNFQELKETPSQTGGPYVHIGLLPKQANIEVFEHNLDNNLVQDNTQGQRIRLEGQVFDGLSLPLRDVLIEIWQADTNGVYPSQADTQGKQVDPNFLGWGRTGADFGTGFWSFNTIKPGAVPGRKGSTQAPHISLIIFARGINIGLHTRVYFDDEAEANAKDPVLNSIEWATRRQTLVAKREERDGEVVYRFDIRIQGENETVFFDI”: “soluble”; “MAITVKGLTNKLTRTQRRIAVVEFIFSLLFFLPKEAEVIQADFLEYDTKERQLNEWQKLIVKAFSENIFSFQKKIEEQQLKNQLEIQTKYNKISGKKIDLLTTAVVLCALSEQKAHNTDKPLLISEALLIMDHYSQGAEKKQTHALLDKLL”: “soluble”; “MSLTRIVLPGGAGLVGQNLVARLKARGYTNLVVLDKHEANLDVLRSVHPDITAVFADLAEPGDWARHFEGADVVVMLQAQIGAPTREPFVRNNIDSTRCVLEVIKQHAIPYTVHISSSVVKSVGEDWYTETKREQEAIVLASGIGCVVLRPTLMFGWFDRKHLGWLSRFMQRVPVFPIPGSGRYMRQPLYVGDFCNVIISCIDSRIQGQTFDITGLERIDYIDIIRQIKRVTRARCAIVRIPYGLFHILLKVYALFSKNPPFTADQLKALTAGDEFDVIDWERIFAIRATPFAQAMEETFNDPTYSHIALEEGHHHHHH”: “soluble”.
For the sequence “QIQLTQSPSSLSASVGDRVTITCSASSSVNSSALFWYQQKPGKAPKPWIYLTSNLASGVPSRFSGSGSGTDYTLTISSLQPEDFATYYCQQISGNPWTFGQGTKVEIKRADAAPTVSIFPPSSEQLTSGGASVVCFLNNFYPKDINVKWKIDGSERQNGVLNSWTDQDSKDSTYSMSSTLTLTKDEYERHNSYTCEATHKTSTSPIVKSFNRNEC”, the “soluble on expression in E. coli” value was “soluble”.
“MSLKKSPLTIVHLTDIHYDPEYVVGVNADCKAEACCRTLPDLAPATPETAAGYWSDYRDCDTPWHGVVDVMEHIRRQHPKIDAIYFTGDIVHHFTWNTSIETNEGAMRQVFDLMKRVFPGVPLYPVLGNHESHPANLYAPHDVEASYRMDYLYDFIADQWADWLPIKDIRPTLTEGGYYTVRTPYGVRIIGLNNNPCFVHNFWLFYSLDYFMPQLQWLHDTLLQAEWDNERVHILAHVPSYDDSCFIGWTREYRKIVERFAHIIAGQFNGHSHVDEFNLYYRRDDPSRAVSVAWNGGSTTTFTKLNPNYKVFQFDPVTFEPLEQETWMYNLTDANLTPDQRPSWYRLYSFKSYYQLPDLSVDSLHRLVQRFAQSEQQLHRYWQAKQKYSDPLLQEGCTSTCLRNALCAIVRTEHDDERACELLYERAAQSEGHHHHHH”: the “soluble on expression in E. coli” value is recorded as “not soluble”.
The same measure for “MGGMPITSFKFLYYFQIDDGDEETDIYLSPKEKATQTFSIKYNNNNTPTFSGDLRAGEKYTFDFHINFYDFATITIVQKREGEEELRIEYLNIPVEKRSEDHFERHF”: “not soluble”.
Regarding “MSLTKKELRKEQTNRFIESTIITTDLLLSSYLYDSTKMEEFLSFIANLDNKYSFINMYLVRTQFPGASIVKSYSSWKKENIQVRKNEKGISIFRPKVIEYVVYNNTKVTKDKWTNEIKELVKNNELEVYTYTKGFTLAKVFDISQTTLPKAQYPKQYFSYFIKEDNENINPNTKLLSLLCNFIAKHNIGITYATMGLSTSEQRFYDKNSHGIKHWIRLNDKNSITQNIYSLVKEYAHTLLGHDISAINNIENRYQAQLVAYAICKSFRLKGIELSSFDAFRSWVNTSTKEMRKKWINSVIFASKQFANDFNYFLDEIEINVDKANLRETASINELMGREGHHHHHH”, the “soluble on expression in E. coli” value is on record as “soluble”.
The same measure for “TLAQPVTIREIAEPPKIRLPRHLRQTYIRKVGEQLNLVVPFQGKPRPQVVWTKGGAPLDTSRVHVRTSDFDTVFFVRQAARSDSGEYELSVQIENMKDTATIRIRVVEKAG”: “soluble”; for “GAMGSQQIATAKDKYEWLVSRIVKNHNENWLSVSRKMQASPEYQDYVYLEGTQKAKKLFLQHIHRLKHE”: “soluble”.
